Test results: patent US10058586B2, “Use of human small leucine zipper protein in adipocyte differentiation procedure” (Korea University Research and Business Foundation, priority 2013, dated 2018)

B1: sLZIP: human small leucine-zipper protein, isoform of LZIP, 354 amino acids, no transmembrane domain; GenBank FJ263669, SEQ ID NO: 1 (protein, listed as Homo sapiens)
chain: MELELDAGDQDLLAFLLEESGDLGTAPDEAVRAPLDWALPLSEVPSDWEVDDLLCSLLSPPASLNILSSSNPCLVHHDHTYSLPRETVSMDLESESCRKEGTQMTPQHMEELAEQEIARLVLTDEEKSLLEKEGLILPETLPLTKTEEQILKRVRRKIRNKRSAQESRRKKKVYVGGLESRVLKYTAQNMELQNKVQLLEEQNLSLLDQLRKLQAMVIEISNKTSSSSMYSSDTRGSLPAEHGVLSRQLRALPSEDPYQLELPALQSEVPKDSTHQWLDGSDCVLQAPGNTSCLLHYMPQAPSAEPPLEWPFPDLFSEPLCRGPILPLQANLTRKGGWLPTGSPSVILQDRYSG
B2: N domains of sLZIP: N-terminal deletion mutant of sLZIP, residues 1-228 (protein)
chain: MELELDAGDQDLLAFLLEESGDLGTAPDEAVRAPLDWALPLSEVPSDWEVDDLLCSLLSPPASLNILSSSNPCLVHHDHTYSLPRETVSMDLESESCRKEGTQMTPQHMEELAEQEIARLVLTDEEKSLLEKEGLILPETLPLTKTEEQILKRVRRKIRNKRSAQESRRKKKVYVGGLESRVLKYTAQNMELQNKVQLLEEQNLSLLDQLRKLQAMVIEISNKTSSSS
modifications: left off: a dimerising Fc or GST

Assays:
[1] = biological target: T1, PPARγ2 (Homo sapiens, UniProt P37231); assay: Luciferase reporter gene analysis (FABP4-Luc) of PPARγ2 transcriptional activity in 293T cells; format: cell-based; set-up: expressed in transfected cells; host or cells: 293T cells; conditions: 293T cells; for transcriptional activity of PPARγ2 (luciferase): sLZIP 0.1 μg; for PPARγ2 transcriptional activity (luciferase): sLZIP or deletion mutants 0.1 μg, RZD treated
T1 sequence (P37231 1-505): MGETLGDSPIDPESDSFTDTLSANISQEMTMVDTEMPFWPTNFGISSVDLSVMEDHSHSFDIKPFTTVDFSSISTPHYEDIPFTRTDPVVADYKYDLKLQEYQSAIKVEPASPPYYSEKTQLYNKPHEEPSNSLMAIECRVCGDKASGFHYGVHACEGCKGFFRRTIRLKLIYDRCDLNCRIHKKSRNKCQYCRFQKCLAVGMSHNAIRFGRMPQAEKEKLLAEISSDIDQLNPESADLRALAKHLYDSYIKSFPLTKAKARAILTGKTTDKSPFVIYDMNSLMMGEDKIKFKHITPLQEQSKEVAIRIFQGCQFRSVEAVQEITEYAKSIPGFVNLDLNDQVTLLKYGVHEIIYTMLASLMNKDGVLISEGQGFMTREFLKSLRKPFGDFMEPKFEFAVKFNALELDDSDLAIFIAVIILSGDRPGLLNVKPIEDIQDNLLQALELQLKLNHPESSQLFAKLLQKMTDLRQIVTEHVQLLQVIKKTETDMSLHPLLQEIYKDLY
Method: C3H10T1/2 and 293T cells were plated in a 12-well culture dish at a density of 2×10^5 cells/well and incubated for 24 hours. Then, according to instructions of the manufacturer, the cells were transfected with a 0.2 μg of reporter genes and 0.1 to 0.5 μg of a laboratory plasmid using Lipofectamine 2000 or Genefectine. After 24 hours, the cells were cultured in a serum-free DMEM with or without 10 nM of rosiglitazone. siRNAs were prepared using sLZIP and HDAC target sequences (Table 1). For an RNA interference experiment, according to instructions of the manufacturer, the cells were transfected with scrambled control group RNA and appropriate siRNAs using Lipofectamine 2000. Human MSC and C3H10T/1/2 cells were infected with an adenovirus vector containing cDNA of human sLZIP or an empty vector. The infected medium was exchanged with a fresh medium after two hours.
Appropriately transfected cells were washed with cold PBS twice, and a reporter lysis buffer (Promega) was used and lysed in a culture dish. Luciferase analysis was performed using a luciferase analysis system (Promega Corporation, Madison, Wis.). A luciferase activity was recorded in Luminometer 20/20^n (Turner BioSystems, Sunnyvale, Calif.) according to instructions of the manufacturer. The luciferase activity was normalized to a β-galactosidase activity. For β-galactosidase analysis, CMV-β-galactosidase was transfected with luciferase reporter genes. All pieces of data were represented as mean±standard deviation of the results from at least three independent experiments.
In order to examine an effect of sLZIP on the transcriptional activity of PPARγ2, 293T cells were temporarily transfected with PPARγ2 (0.5 μg), β-galactosidase (0.1 μg), FABP4-Luc reporter genes (0.2 μg) and sLZIP at different contents (0.1 to 0.5 μg). After the transfection, the cells were stimulated with or without 10 nM of rosiglitazone (RZD) (FIG. 1A), pioglitazone (PZD) (FIG. 1B), and troglitazone (TZD) (FIG. 1C). A relative luciferase activity was analyzed with or without cell ligand treatment 24 hours after transfection. Also, the 293T cells were transiently transfected with si-sLZIP at different contents (50 and 100 nM), and the cells were treated or not treated with RZD (FIG. 1D). FABP4-Luc stable C3H10T1/2 cells were infected with a sLZIP-expressing adenovirus, and then differentiated into adipocytes for 4 days (FIG. 1E). A luciferase activity was normalized to a β-galactosidase activity and represented as a relative activity (fold change). All experiments were repeated three times, and bars in the graph represent mean±standard deviation. *, P<0.05; **, P<0.01
For this purpose, 293T cells were transiently transfected with PPARγ2 (0.5 μg), (3-galactosidase (0.1 μg), FABP4-Luc reporter genes (0.2 μg) and sLZIP (0.1 μg). After the transfection, the cells were stimulated with or without 10 nM of RZD and 10 nM of TSA (FIG. 4A). A promoter activity was measured according to luciferase analysis. In the 293T cells, FABP4-Luc reporter genes, sLZIP, PPAR, β-galactosidase, and 100 nM of si-RNAs and HDAC1, 2, 3 and 8 for a control group were expressed. After the transfection, the cells were stimulated with or without 10 nM of RZD, and a promoter activity was measured (FIG. 4B). 293T cells were temporarily transfected with FABP4-Luc reporter genes, PPARγ2, β-galactosidase, HDAC3 (0.5 μg) and sLZIP (0.1 μg). After the transfection, the cells were stimulated with or without 10 nM of RZD, and luciferase analysis was performed (FIG. 4C). A luciferase activity was normalized to a β-galactosidase activity and represented as a relative intensity (fold change). All experiments were repeated three times, and bars in the graph represent mean±standard deviation. GFP-sLZIP expression constructs were expressed in C3H10T1/2 cells, rabbit anti-HDAC3 antibodies and Texas Red-labeled anti-rabbit antibodies were used and analysis was performed under a fluorescence microscope. The nucleus was stained with DAPI (FIG. 4D). […]

[2] = tested on: multipotential mesenchymal progenitor cells; assay: Oil red O staining, differentiation of multipotential mesenchymal progenitor cells into adipocytes; format: cell-based; conditions: C3H10T1/2 and 3T3-L1 cells

Molecule | transcriptional activity of PPARγ2 (luciferase) ([1]; cells treated with 10 nM TSA (HDAC inhibitor)) | transcriptional activity of PPARγ2 (luciferase) ([1]; no TSA) | transcriptional activity of PPARγ2 (relative luciferase activity) ([1]; sLZIP 0.1 to 0.5 μg, with or without 10 nM RZD, PZD or TZD) | PPARγ2 transcriptional activity (luciferase) [1] | sLZIP-mediated PPARγ2 transcriptional activity (luciferase) ([1]; transfection of both sLZIP (0.1 μg) and HDAC3 (0.5 μg)) | adipocyte differentiation (oil red O staining) [2]
B1 | did not decrease the transcriptional activity of PPARγ2 | inhibits the transcriptional activity of PPARγ2 | inhibits the transcriptional activity of PPARγ2 in a concentration-dependent manner | still inhibited the PPARγ2 transcriptional activity | significantly down-regulated | inhibited adipocyte differentiation
B2 |  |  |  | The transcriptional activity of PPARγ2 was inhibited |  | 
